In the assay the target is Homo sapiens selenoprotein S U188C (human) (UniProt Q9BQE4). Description: SEC. For orientation: In gel filtration, larger molecules generally elute earlier.

Broadly, the stoichiometry N is a count of units in the complex or per binding partner.

In turn, “Homo sapiens selenoprotein S U188C (from UniProt Q9BQE4 1-189) (natural protein)” showed a stoichiometry N of 2.
